Assay results reported in publication doi:10.1101/2023.12.12.571160.

Tests used:
[1] = molecular target: prefusion-stabilized PRD-0038 S2 subunit trimer (PRD-0038 (clade 3 sarbecovirus)); experiment: negative-stain EM
[2] = molecular target: prefusion-stabilized SARS-CoV-1 S2 subunit trimer (SARS-CoV-1); experiment: negative-stain EM

Row | Substance | stoichiometry N [1] | stoichiometry N [2]
1 | prefusion-stabilized PRD-0038 S2 subunit trimer (domain or fragment) | 3 | –
2 | prefusion-stabilized SARS-CoV-1 S2 subunit trimer (domain or fragment) | – | 3
